Key:
Test in all cases: cell-based or functional assay
[1] = molecular target: HIV-1 envelope of pseudovirus Ce704809221_1B3 (HIV-1)
[2] = molecular target: HIV-1 envelope of pseudovirus Ce1176_A3 (HIV-1)
[3] = molecular target: HIV-1 envelope of pseudovirus ZM247v1(Rev-) (HIV-1)
[4] = molecular target: HIV-1 Env of pseudovirus 263-8 (HIV-1)
[5] = molecular target: HIV-1 envelope of pseudovirus 3016.v5.c45 (HIV-1)
[6] = molecular target: HIV-1 envelope of pseudovirus Ce2060_G9 (HIV-1)
[7] = molecular target: HIV-1 Env of pseudovirus CNE19 (HIV-1)
[8] = molecular target: HIV-1 Env of pseudovirus ZM135M.PL10a (HIV-1)
[9] = molecular target: HIV-1 envelope of pseudovirus CNE21 (HIV-1)
[10] = molecular target: HIV-1 envelope of pseudovirus 235-47 (HIV-1)
[11] = molecular target: HIV-1 envelope of pseudovirus CNE8 (HIV-1)
[12] = molecular target: HIV-1 Env of pseudovirus CAAN5342.A2 (HIV-1)
[13] = molecular target: HIV-1 envelope spike of pseudovirus BaL.26 (HIV-1)
[14] = molecular target: HIV-1 Env of pseudovirus Ce2010_F5 (HIV-1)
[15] = molecular target: HIV-1 Env of pseudovirus CNE17 (HIV-1)
[16] = molecular target: HIV-1 envelope of pseudovirus T278-50 (HIV-1)
[17] = molecular target: HIV-1 envelope of pseudovirus CNE58 (HIV-1)
[18] = molecular target: HIV-1 Env of pseudovirus THRO4156.18 (HIV-1)
[19] = molecular target: HIV-1 envelope of pseudovirus 620345.c01 (HIV-1)
[20] = molecular target: HIV-1 Env of pseudovirus CNE21 (HIV-1)
[21] = molecular target: HIV-1 envelope of pseudovirus 6952.v1.c20 (HIV-1)
[22] = molecular target: HIV-1 envelope of pseudovirus CAP45.2.00.G3 (HIV-1)
[23] = molecular target: HIV-1 Env of pseudovirus 3415.v1.c1 (HIV-1)
[24] = molecular target: HIV-1 Env of pseudovirus Ce1176_A3 (HIV-1)
[25] = molecular target: HIV-1 Env of pseudovirus C1080.c03 (HIV-1)
[26] = molecular target: HIV-1 envelope of pseudovirus 231965.c01 (HIV-1)
[27] = molecular target: HIV-1 Env of pseudovirus 6545.v4.c1 (HIV-1)
[28] = molecular target: HIV-1 envelope of pseudovirus T250-4 (HIV-1)
[29] = molecular target: HIV-1 envelope of pseudovirus CNE52 (HIV-1)
[30] = molecular target: HIV-1 Env of pseudovirus Q451.e2 (HIV-1)
[31] = molecular target: HIV-1 envelope of pseudovirus Du156.12 (HIV-1)
[32] = molecular target: HIV-1 Env of pseudovirus ZM247v1(Rev-) (HIV-1)
[33] = molecular target: HIV-1 envelope of pseudovirus 1394C9G1(Rev-) (HIV-1)
[34] = molecular target: HIV-1 Env of pseudovirus 3103.v3.c10 (HIV-1)
[35] = molecular target: HIV-1 envelope of pseudovirus X1632_S2_B10 (HIV-1)
[36] = molecular target: HIV-1 envelope spike of pseudovirus 6535.3 (HIV-1)
[37] = molecular target: HIV-1 envelope of pseudovirus X1193_c1 (HIV-1)
[38] = molecular target: HIV-1 Env of pseudovirus R2184.c04 (HIV-1)
[39] = molecular target: HIV-1 envelope of pseudovirus Ce703010054_2A2 (HIV-1)
[40] = molecular target: HIV-1 envelope of pseudovirus 6535.3 (HIV-1)
[41] = molecular target: HIV-1 Env of pseudovirus 191821_E6_1 (HIV-1)
[42] = molecular target: HIV-1 Env of pseudovirus Ce2060_G9 (HIV-1)
[43] = molecular target: HIV-1 envelope spike of pseudovirus R1166.c1 (HIV-1)
[44] = molecular target: HIV-1 envelope of pseudovirus Ce0393_C3 (HIV-1)
[45] = molecular target: HIV-1 envelope of pseudovirus 263-8 (HIV-1)
[46] = molecular target: HIV-1 envelope of pseudovirus TRJO4551.58 (HIV-1)
[47] = molecular target: HIV-1 Env of pseudovirus Du422.1 (HIV-1)
[48] = molecular target: HIV-1 Env of pseudovirus C4118.c09 (HIV-1)
[49] = molecular target: HIV-1 envelope of pseudovirus CNE20 (HIV-1)
[50] = molecular target: HIV-1 Env of pseudovirus X1632_S2_B10 (HIV-1)
[51] = molecular target: HIV-1 Env of pseudovirus C3347.c11 (HIV-1)

10-996 (antibody), sequence (VH): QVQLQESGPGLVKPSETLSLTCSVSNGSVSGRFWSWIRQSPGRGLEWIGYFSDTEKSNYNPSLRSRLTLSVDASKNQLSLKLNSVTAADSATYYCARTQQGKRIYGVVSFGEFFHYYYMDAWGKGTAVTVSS
10-996 (antibody), sequence (VL): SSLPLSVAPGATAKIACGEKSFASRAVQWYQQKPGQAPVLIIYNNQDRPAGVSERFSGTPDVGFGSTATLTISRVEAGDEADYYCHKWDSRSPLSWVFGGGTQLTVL
10-1074 (antibody), sequence (VH): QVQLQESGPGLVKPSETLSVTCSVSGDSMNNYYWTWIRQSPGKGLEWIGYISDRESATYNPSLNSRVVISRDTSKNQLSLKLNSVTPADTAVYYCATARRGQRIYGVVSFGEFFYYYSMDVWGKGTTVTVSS
10-1074 (antibody), sequence (V domain): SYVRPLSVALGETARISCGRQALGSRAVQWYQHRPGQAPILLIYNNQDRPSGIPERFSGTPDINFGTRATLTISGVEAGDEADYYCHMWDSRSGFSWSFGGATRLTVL

With 10-996 (antibody) the IC50 (TZM-bl neutralization) [1] was 0.243 µg/mL, the IC50 (TZM-bl neutralization) [2] was 0.043 µg/mL and the IC50 (TZM-bl neutralization) [3] was 0.055 µg/mL. For the same substance, the IC80 (TZM-bl neutralization) [4] was > 50 µg/mL, the IC50 (TZM-bl neutralization) [5] was > 50 µg/mL and the IC50 (TZM-bl neutralization) [6] was > 50 µg/mL. For the same substance, the IC80 (TZM-bl neutralization) [7] was > 50 µg/mL, the IC80 (TZM-bl neutralization) [8] was 0.553 µg/mL and the IC50 (TZM-bl neutralization) [9] was 0.086 µg/mL. The IC50 (TZM-bl neutralization) [10] was 0.128 µg/mL, the IC50 (TZM-bl neutralization) [11] was > 50 µg/mL and the IC80 (TZM-bl neutralization) [12] was 0.079 µg/mL. The IC50 (TZM-bl neutralization assay) [13] was 0.045 µg/mL, the IC80 (TZM-bl neutralization assay) [13] was 0.228 µg/mL and the IC80 (TZM-bl neutralization) [14] was > 50 µg/mL. For the same substance, the IC80 (TZM-bl neutralization) [15] was 24.7 µg/mL, the IC50 (TZM-bl neutralization) [16] was 14 µg/mL and the IC50 (TZM-bl neutralization) [17] was 0.57 µg/mL. For the same substance, the IC80 (TZM-bl neutralization) [18] was > 50 µg/mL, the IC50 (TZM-bl neutralization) [19] was > 50 µg/mL and the IC80 (TZM-bl neutralization) [20] was 0.255 µg/mL. The IC50 (TZM-bl neutralization) [21] was 0.044 µg/mL, the IC50 (TZM-bl neutralization) [22] was > 50 µg/mL and the IC80 (TZM-bl neutralization) [23] was > 50 µg/mL. The IC80 (TZM-bl neutralization) [24] was 0.151 µg/mL, the IC80 (TZM-bl neutralization) [25] was > 50 µg/mL and the IC50 (TZM-bl neutralization) [26] was > 50 µg/mL. For the same substance, the IC80 (TZM-bl neutralization) [27] was > 50 µg/mL, the IC50 (TZM-bl neutralization) [28] was < 0.001 µg/mL and the IC50 (TZM-bl neutralization) [29] was 4.53 µg/mL. The IC80 (TZM-bl neutralization) [30] was > 50 µg/mL, the IC50 (TZM-bl neutralization) [31] was 0.018 µg/mL and the IC80 (TZM-bl neutralization) [32] was 0.252 µg/mL. The IC50 (TZM-bl neutralization) [33] was 0.086 µg/mL, the IC80 (TZM-bl neutralization) [34] was 0.15 µg/mL and the IC50 (TZM-bl neutralization) [35] was > 50 µg/mL. For the same substance, the IC50 (TZM-bl neutralization assay) [36] was 0.018 µg/mL, the IC80 (TZM-bl neutralization assay) [36] was 0.085 µg/mL and the IC50 (TZM-bl neutralization) [37] was 0.144 µg/mL. For the same substance, the IC80 (TZM-bl neutralization) [38] was > 50 µg/mL, the IC50 (TZM-bl neutralization) [39] was > 50 µg/mL and the IC50 (TZM-bl neutralization) [40] was 0.017 µg/mL. The IC80 (TZM-bl neutralization) [41] was > 50 µg/mL, the IC80 (TZM-bl neutralization) [42] was > 50 µg/mL and the IC50 (TZM-bl neutralization assay) [43] was > 40 µg/mL. For the same substance, the IC80 (TZM-bl neutralization assay) [43] was > 40 µg/mL, the IC50 (TZM-bl neutralization) [44] was > 50 µg/mL and the IC50 (TZM-bl neutralization) [45] was 10.9 µg/mL. The IC50 (TZM-bl neutralization) [46] was 0.147 µg/mL, the IC80 (TZM-bl neutralization) [47] was 0.215 µg/mL and the IC80 (TZM-bl neutralization) [48] was > 50 µg/mL. The IC50 (TZM-bl neutralization) [49] was < 0.001 µg/mL, the IC80 (TZM-bl neutralization) [50] was > 50 µg/mL and the IC80 (TZM-bl neutralization) [51] was > 50 µg/mL.

10-1074 (antibody) showed an IC50 (TZM-bl neutralization) [1] of 0.139 µg/mL, an IC50 (TZM-bl neutralization) [2] of 0.018 µg/mL and an IC50 (TZM-bl neutralization) [3] of 0.042 µg/mL. For the same substance, the IC80 (TZM-bl neutralization) [4] was 6.53 µg/mL, the IC50 (TZM-bl neutralization) [5] was > 50 µg/mL and the IC50 (TZM-bl neutralization) [6] was > 50 µg/mL. For the same substance, the IC80 (TZM-bl neutralization) [7] was > 50 µg/mL, the IC80 (TZM-bl neutralization) [8] was 0.367 µg/mL and the IC50 (TZM-bl neutralization) [9] was 0.087 µg/mL. For the same substance, the IC50 (TZM-bl neutralization) [10] was 0.05 µg/mL, the IC50 (TZM-bl neutralization) [11] was > 50 µg/mL and the IC80 (TZM-bl neutralization) [12] was 0.036 µg/mL. The IC50 (TZM-bl neutralization assay) [13] was 0.033 µg/mL, the IC80 (TZM-bl neutralization assay) [13] was 0.124 µg/mL and the IC80 (TZM-bl neutralization) [14] was > 50 µg/mL. For the same substance, the IC80 (TZM-bl neutralization) [15] was 13.3 µg/mL, the IC50 (TZM-bl neutralization) [16] was 2.15 µg/mL and the IC50 (TZM-bl neutralization) [17] was 0.267 µg/mL. The IC80 (TZM-bl neutralization) [18] was > 50 µg/mL, the IC50 (TZM-bl neutralization) [19] was > 50 µg/mL and the IC80 (TZM-bl neutralization) [20] was 0.181 µg/mL. For the same substance, the IC50 (TZM-bl neutralization) [21] was 0.037 µg/mL, the IC50 (TZM-bl neutralization) [22] was > 50 µg/mL and the IC80 (TZM-bl neutralization) [23] was > 50 µg/mL. The IC80 (TZM-bl neutralization) [24] was 0.07 µg/mL, the IC80 (TZM-bl neutralization) [25] was > 50 µg/mL and the IC50 (TZM-bl neutralization) [26] was > 50 µg/mL. The IC80 (TZM-bl neutralization) [27] was > 50 µg/mL, the IC50 (TZM-bl neutralization) [28] was < 0.001 µg/mL and the IC50 (TZM-bl neutralization) [29] was 1.23 µg/mL. The IC80 (TZM-bl neutralization) [30] was > 50 µg/mL, the IC50 (TZM-bl neutralization) [31] was 0.015 µg/mL and the IC80 (TZM-bl neutralization) [32] was 0.186 µg/mL. For the same substance, the IC50 (TZM-bl neutralization) [33] was 0.05 µg/mL, the IC80 (TZM-bl neutralization) [34] was 0.101 µg/mL and the IC50 (TZM-bl neutralization) [35] was > 50 µg/mL. It also gave an IC50 (TZM-bl neutralization assay) [36] of 0.007 µg/mL, an IC80 (TZM-bl neutralization assay) [36] of 0.044 µg/mL and an IC50 (TZM-bl neutralization) [37] of 0.083 µg/mL. The IC80 (TZM-bl neutralization) [38] was > 50 µg/mL, the IC50 (TZM-bl neutralization) [39] was > 50 µg/mL and the IC50 (TZM-bl neutralization) [40] was 0.014 µg/mL. The IC80 (TZM-bl neutralization) [41] was > 50 µg/mL, the IC80 (TZM-bl neutralization) [42] was > 50 µg/mL and the IC50 (TZM-bl neutralization assay) [43] was > 40 µg/mL. For the same substance, the IC80 (TZM-bl neutralization assay) [43] was > 40 µg/mL, the IC50 (TZM-bl neutralization) [44] was > 50 µg/mL and the IC50 (TZM-bl neutralization) [45] was 0.666 µg/mL. For the same substance, the IC50 (TZM-bl neutralization) [46] was 0.17 µg/mL, the IC80 (TZM-bl neutralization) [47] was 0.166 µg/mL and the IC80 (TZM-bl neutralization) [48] was > 50 µg/mL. The IC50 (TZM-bl neutralization) [49] was < 0.001 µg/mL, the IC80 (TZM-bl neutralization) [50] was > 50 µg/mL and the IC80 (TZM-bl neutralization) [51] was > 50 µg/mL.
